Source: patent US6703362 (CYTOGEN, dated 2004)

T1: hPEPT1 receptor domain (human PEPT1, amino acid residues 391-571), His-tag fusion protein (human, UniProt P46059 391-571)
T1 construct: purified under denaturing conditions; also called recombinant hPEPT1; not shown: poly-histidine tag (pET vector) at the NH2-terminal end
T1 sequence: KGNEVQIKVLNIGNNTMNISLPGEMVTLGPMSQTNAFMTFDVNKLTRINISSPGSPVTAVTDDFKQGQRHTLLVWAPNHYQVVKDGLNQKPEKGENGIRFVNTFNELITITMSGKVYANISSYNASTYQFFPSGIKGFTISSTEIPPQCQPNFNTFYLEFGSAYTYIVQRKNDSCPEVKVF

B1: PAX35 (peptide)
peptide: RSITDGGINEVDLSSVSNVLENANSHRAYRKHRPTLKRPAETVESCLAKPHTENSFTNVWKDDKTLDRYANYEGCLWNATGVVVCTGDETQCYGTWVPIGLAIPENEGGGSEGGGSEGGGSEGGGTKPPEYGDTPIPGYTYINPLDGTYPPGTEQNPANPNPSLEESQPLNTFMFQNNRFRNRQGALTVYTGTVTQGTDPVKTYYQYTPVSSKAMYDAYWNGKFRDCAFHSGFNEDPFVCEYQGQSSDLPQPPVNAGGGSGGGSGGGSEGGGSEGGGSEGGGSEGGGSGGGSGSGDFDYEKMANANKGAMTENADENALQSDAKGKLDSVATDYGAAIDGFIGDVSGLANGNGATGDFAGSNSQMAQVGDGDNSPLMNNFRQYLPSLPQSVECRPFVFSAGKPYEFSIDCDKINLFRGVFAFLLYVATFMYVFSTFANILRNKES
notes: Assayed as M13 phage clone displaying the insert
B2: PAX45 (peptide)
peptide: SFQVYPDHGLERHALDGTGPLYAMPGRWIRARPQNRDRQAETVESCLAKPHTENSFTNVWKDDKTLDRYANYEGCLWNATGVVVCTGDETQCYGTWVPIGLAIPENEGGGSEGGGSEGGGSEGGGTKPPEYGDTPIPGYTYINPLDGTYPPGTEQNPANPNPSLEESQPLNTFMFQNNRFRNRQGALTVYTGTVTQGTDPVKTYYQYTPVSSKAMYDAYWNGKFRDCAFHSGFNEDPFVCEYQGQSSDLPQPPVNAGGGSGGGSGGGSEGGGSEGGGSEGGGSEGGGSGGGSGSGDFDYEKMANANKGAMTENADENALQSDAKGKLDSVATDYGAAIDGFIGDVSGLANGNGATGDFAGSNSQMAQVGDGDNSPLMNNFRQYLPSLPQSVECRPFVFSAGKPYEFSIDCDKINLFRGVFAFLLYVATFMYVFSTFANILRNKES
notes: as for B1
B3: PAX46 (peptide)
peptide: SRCTDNEQCPDTGTRSRSVSNARYFSSRLLKTHAPHRPAETVESCLAKPHTENSFTNVWKDDKTLDRYANYEGCLWNATGVVVCTGDETQCYGTWVPIGLAIPENEGGGSEGGGSEGGGSEGGGTKPPEYGDTPIPGYTYINPLDGTYPPGTEQNPANPNPSLEESQPLNTFMFQNNRFRNRQGALTVYTGTVTQGTDPVKTYYQYTPVSSKAMYDAYWNGKFRDCAFHSGFNEDPFVCEYQGQSSDLPQPPVNAGGGSGGGSGGGSEGGGSEGGGSEGGGSEGGGSGGGSGSGDFDYEKMANANKGAMTENADENALQSDAKGKLDSVATDYGAAIDGFIGDVSGLANGNGATGDFAGSNSQMAQVGDGDNSPLMNNFRQYLPSLPQSVECRPFVFSAGKPYEFSIDCDKINLFRGVFAFLLYVATFMYVFSTFANILRNKES
notes: as for B1
B4: 5PAX3 (peptide)
peptide: RPKNVADAYSSQDGAAAEETSHASNAARKSPKHKPLRRPAETVESCLAKPHTENSFTNVWKDDKTLDRYANYEGCLWNATGVVVCTGDETQCYGTWVPIGLAIPENEGGGSEGGGSEGGGSEGGGTKPPEYGDTPIPGYTYINPLDGTYPPGTEQNPANPNPSLEESQPLNTFMFQNNRFRNRQGALTVYTGTVTQGTDPVKTYYQYTPVSSKAMYDAYWNGKFRDCAFHSGFNEDPFVCEYQGQSSDLPQPPVNAGGGSGGGSGGGSEGGGSEGGGSEGGGSEGGGSGGGSGSGDFDYEKMANANKGAMTENADENALQSDAKGKLDSVATDYGAAIDGFIGDVSGLANGNGATGDFAGSNSQMAQVGDGDNSPLMNNFRQYLPSLPQSVECRPFVFSAGKPYEFSIDCDKINLFRGVFAFLLYVATFMYVFSTFANILRNKES
notes: as for B1
B5: PAX43 (peptide)
peptide: RWCEKHKFTAARCSAGAGFERDASRPPQPAHRDNTNRNAAETVESCLAKPHTENSFTNVWKDDKTLDRYANYEGCLWNATGVVVCTGDETQCYGTWVPIGLAIPENEGGGSEGGGSEGGGSEGGGTKPPEYGDTPIPGYTYINPLDGTYPPGTEQNPANPNPSLEESQPLNTFMFQNNRFRNRQGALTVYTGTVTQGTDPVKTYYQYTPVSSKAMYDAYWNGKFRDCAFHSGFNEDPFVCEYQGQSSDLPQPPVNAGGGSGGGSGGGSEGGGSEGGGSEGGGSEGGGSGGGSGSGDFDYEKMANANKGAMTENADENALQSDAKGKLDSVATDYGAAIDGFIGDVSGLANGNGATGDFAGSNSQMAQVGDGDNSPLMNNFRQYLPSLPQSVECRPFVFSAGKPYEFSIDCDKINLFRGVFAFLLYVATFMYVFSTFANILRNKES
notes: as for B1
B6: 5PAX12 (peptide)
peptide: RGWKCEGSQAAYGDKDIGRSRGCGSITKNNTNHAHPSHGAVAKIAETVESCLAKPHTENSFTNVWKDDKTLDRYANYEGCLWNATGVVVCTGDETQCYGTWVPIGLAIPENEGGGSEGGGSEGGGSEGGGTKPPEYGDTPIPGYTYINPLDGTYPPGTEQNPANPNPSLEESQPLNTFMFQNNRFRNRQGALTVYTGTVTQGTDPVKTYYQYTPVSSKAMYDAYWNGKFRDCAFHSGFNEDPFVCEYQGQSSDLPQPPVNAGGGSGGGSGGGSEGGGSEGGGSEGGGSEGGGSGGGSGSGDFDYEKMANANKGAMTENADENALQSDAKGKLDSVATDYGAAIDGFIGDVSGLANGNGATGDFAGSNSQMAQVGDGDNSPLMNNFRQYLPSLPQSVECRPFVFSAGKPYEFSIDCDKINLFRGVFAFLLYVATFMYVFSTFANILRNKES
notes: as for B1
B7: PAX17 (peptide)
peptide: SQVDSFRNSFRWYEPSRALCHGCGKRDTSTTRIHNSPSDSYPTRAETVESCLAKPHTENSFTNVWKDDKTLDRYANYEGCLWNATGVVVCTGDETQCYGTWVPIGLAIPENEGGGSEGGGSEGGGSEGGGTKPPEYGDTPIPGYTYINPLDGTYPPGTEQNPANPNPSLEESQPLNTFMFQNNRFRNRQGALTVYTGTVTQGTDPVKTYYQYTPVSSKAMYDAYWNGKFRDCAFHSGFNEDPFVCEYQGQSSDLPQPPVNAGGGSGGGSGGGSEGGGSEGGGSEGGGSEGGGSGGGSGSGDFDYEKMANANKGAMTENADENALQSDAKGKLDSVATDYGAAIDGFIGDVSGLANGNGATGDFAGSNSQMAQVGDGDNSPLMNNFRQYLPSLPQSVECRPFVFSAGKPYEFSIDCDKINLFRGVFAFLLYVATFMYVFSTFANILRNKES
notes: as for B1
B8: 5PAX7 (peptide)
peptide: RWGWERSPSDYDSDMDLGARRYATRTHRAPPRVLKAPLPAETVESCLAKPHTENSFTNVWKDDKTLDRYANYEGCLWNATGVVVCTGDETQCYGTWVPIGLAIPENEGGGSEGGGSEGGGSEGGGTKPPEYGDTPIPGYTYINPLDGTYPPGTEQNPANPNPSLEESQPLNTFMFQNNRFRNRQGALTVYTGTVTQGTDPVKTYYQYTPVSSKAMYDAYWNGKFRDCAFHSGFNEDPFVCEYQGQSSDLPQPPVNAGGGSGGGSGGGSEGGGSEGGGSEGGGSEGGGSGGGSGSGDFDYEKMANANKGAMTENADENALQSDAKGKLDSVATDYGAAIDGFIGDVSGLANGNGATGDFAGSNSQMAQVGDGDNSPLMNNFRQYLPSLPQSVECRPFVFSAGKPYEFSIDCDKINLFRGVFAFLLYVATFMYVFSTFANILRNKES
notes: as for B1
B9: PAX18 (peptide)
peptide: SFLRFQSPRFEDYSRTISRLRNATNPSNVSDAHNNRALAAETVESCLAKPHTENSFTNVWKDDKTLDRYANYEGCLWNATGVVVCTGDETQCYGTWVPIGLAIPENEGGGSEGGGSEGGGSEGGGTKPPEYGDTPIPGYTYINPLDGTYPPGTEQNPANPNPSLEESQPLNTFMFQNNRFRNRQGALTVYTGTVTQGTDPVKTYYQYTPVSSKAMYDAYWNGKFRDCAFHSGFNEDPFVCEYQGQSSDLPQPPVNAGGGSGGGSGGGSEGGGSEGGGSEGGGSEGGGSGGGSGSGDFDYEKMANANKGAMTENADENALQSDAKGKLDSVATDYGAAIDGFIGDVSGLANGNGATGDFAGSNSQMAQVGDGDNSPLMNNFRQYLPSLPQSVECRPFVFSAGKPYEFSIDCDKINLFRGVFAFLLYVATFMYVFSTFANILRNKES
notes: as for B1
B10: PAX40 (peptide)
peptide: RASTQGGRGVAPEFGASVLGRGCGSATYYTNSTSCKDAMGHNYSAETVESCLAKPHTENSFTNVWKDDKTLDRYANYEGCLWNATGVVVCTGDETQCYGTWVPIGLAIPENEGGGSEGGGSEGGGSEGGGTKPPEYGDTPIPGYTYINPLDGTYPPGTEQNPANPNPSLEESQPLNTFMFQNNRFRNRQGALTVYTGTVTQGTDPVKTYYQYTPVSSKAMYDAYWNGKFRDCAFHSGFNEDPFVCEYQGQSSDLPQPPVNAGGGSGGGSGGGSEGGGSEGGGSEGGGSEGGGSGGGSGSGDFDYEKMANANKGAMTENADENALQSDAKGKLDSVATDYGAAIDGFIGDVSGLANGNGATGDFAGSNSQMAQVGDGDNSPLMNNFRQYLPSLPQSVECRPFVFSAGKPYEFSIDCDKINLFRGVFAFLLYVATFMYVFSTFANILRNKES
notes: as for B1
B11: PAX38 (peptide)
peptide: SSKVSSPRDPTVPRKGGNVDYGCGHRSSARMPTSALSSITKCYTAETVESCLAKPHTENSFTNVWKDDKTLDRYANYEGCLWNATGVVVCTGDETQCYGTWVPIGLAIPENEGGGSEGGGSEGGGSEGGGTKPPEYGDTPIPGYTYINPLDGTYPPGTEQNPANPNPSLEESQPLNTFMFQNNRFRNRQGALTVYTGTVTQGTDPVKTYYQYTPVSSKAMYDAYWNGKFRDCAFHSGFNEDPFVCEYQGQSSDLPQPPVNAGGGSGGGSGGGSEGGGSEGGGSEGGGSEGGGSGGGSGSGDFDYEKMANANKGAMTENADENALQSDAKGKLDSVATDYGAAIDGFIGDVSGLANGNGATGDFAGSNSQMAQVGDGDNSPLMNNFRQYLPSLPQSVECRPFVFSAGKPYEFSIDCDKINLFRGVFAFLLYVATFMYVFSTFANILRNKES
notes: as for B1
B12: PAX9 (peptide)
peptide: RWPSVGYKGNGSDTIDVHSNDASTKRSLIYNHRRPLFPAETVESCLAKPHTENSFTNVWKDDKTLDRYANYEGCLWNATGVVVCTGDETQCYGTWVPIGLAIPENEGGGSEGGGSEGGGSEGGGTKPPEYGDTPIPGYTYINPLDGTYPPGTEQNPANPNPSLEESQPLNTFMFQNNRFRNRQGALTVYTGTVTQGTDPVKTYYQYTPVSSKAMYDAYWNGKFRDCAFHSGFNEDPFVCEYQGQSSDLPQPPVNAGGGSGGGSGGGSEGGGSEGGGSEGGGSEGGGSGGGSGSGDFDYEKMANANKGAMTENADENALQSDAKGKLDSVATDYGAAIDGFIGDVSGLANGNGATGDFAGSNSQMAQVGDGDNSPLMNNFRQYLPSLPQSVECRPFVFSAGKPYEFSIDCDKINLFRGVFAFLLYVATFMYVFSTFANILRNKES
notes: as for B1

Each binder was assayed against T1, hPEPT1 receptor domain (human PEPT1, …) (assay: phage ELISA, plate coated with hPEPT1 domain).
Experimental: 6.6. Receptor ELISA Procedure 96 well plates were coated overnight with GIT receptor, BSA and, optionally, IDE (insulin degrading enzyme, an irrelevant His-fusion protein)or hTF. The plates were blocked for one hour with 0.5% BSA-PBS. After clarification, the amplified phage were diluted 1:100 in […] plus 0.05% Tween 20 in PBS and added to the plates. Following incubation of the plates on a rotator for 1 to 2 hours, the plates were washed 5 times with 1% BSA plus 0.05% Tween 20 in PBS. […] After the plates were washed 5 times, as described above, TMB substrate was added to the wells. The plates were read at 650 nm absorbance.

Binder | OD [OD]
B1 | 0.474
B2 | 0.419
B3 | 0.429
B4 | 0.173
B5 | 0.345
B6 | 0.227
B7 | 0.514
B8 | 0.171
B9 | 0.416
B10 | 0.461
B11 | 0.292
B12 | 0.312
